Data reported in patent CN115558029A (LILING BIOLOGICAL PHARMACEUTICAL SUZHOU CO LTD, dated 2023).
Blank lines part the entries; values can stand above or below the binder they belong to.

Columns and labels:
[1] = target: PD-1 on Jurkat/PD-1细胞(Promega) (UniProt Q15116 25-288, limits assumed); experiment: cell-based or functional assay
[2] = target: T1, 人PD-1蛋白(北京百普赛斯，货号PD1-H5221) (human, UniProt Q15116 25-167); experiment: binding ELISA on coated PD-1 protein
T1 construct: Bought recombinant protein coated on the ELISA plate; also called PD-1抗原

EC50, PD-1报告基因法 [1]: 4 µg/mL | EC50 [2]: 0.0641 µg/mL
B1: 抗PD-1/PSCK9-2 (bispecific antibody, human IgG4 S228P, kappa)
heavy: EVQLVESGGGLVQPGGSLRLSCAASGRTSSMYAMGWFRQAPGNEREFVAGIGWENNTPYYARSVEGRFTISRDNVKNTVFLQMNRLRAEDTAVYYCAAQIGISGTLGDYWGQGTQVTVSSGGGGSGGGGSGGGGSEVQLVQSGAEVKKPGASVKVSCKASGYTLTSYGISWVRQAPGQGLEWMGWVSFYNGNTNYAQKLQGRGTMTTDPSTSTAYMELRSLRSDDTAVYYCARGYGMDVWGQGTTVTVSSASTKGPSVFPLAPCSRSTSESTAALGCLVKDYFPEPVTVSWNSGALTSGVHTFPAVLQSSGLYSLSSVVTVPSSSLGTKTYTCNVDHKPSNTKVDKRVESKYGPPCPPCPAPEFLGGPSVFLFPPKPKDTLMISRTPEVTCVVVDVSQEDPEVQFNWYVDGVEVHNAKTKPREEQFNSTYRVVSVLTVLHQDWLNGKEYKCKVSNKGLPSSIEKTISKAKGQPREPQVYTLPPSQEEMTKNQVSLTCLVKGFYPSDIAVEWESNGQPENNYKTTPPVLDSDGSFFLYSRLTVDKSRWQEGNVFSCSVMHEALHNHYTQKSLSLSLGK
light: ESALTQPASVSGSPGQSITISCTGTSSDVGGYNSVSWYQQHPGKAPKLMIYEVSNRPSGVSNRFSGSKSGNTASLTISGLQAEDEADYYCNSYTSTSMVFGGGTKLTVLRTVAAPSVFIFPPSDEQLKSGTASVVCLLNNFYPREAKVQWKVDNALQSGNSQESVTEQDSKDSTYSLSSTLTLSKADYEKHKVYACEVTHQGLSSPVTKSFNRGEC
notes: also called antiPD-1/PSCK9-2; 抗PD-1/PCSK9-2

EC50, PD-1报告基因法 [1]: 1.7 µg/mL | EC50 [2]: 0.17 µg/mL
B2: 抗PD-1/TGF-β-1 (bispecific antibody, human IgG4 S228P, kappa)
heavy: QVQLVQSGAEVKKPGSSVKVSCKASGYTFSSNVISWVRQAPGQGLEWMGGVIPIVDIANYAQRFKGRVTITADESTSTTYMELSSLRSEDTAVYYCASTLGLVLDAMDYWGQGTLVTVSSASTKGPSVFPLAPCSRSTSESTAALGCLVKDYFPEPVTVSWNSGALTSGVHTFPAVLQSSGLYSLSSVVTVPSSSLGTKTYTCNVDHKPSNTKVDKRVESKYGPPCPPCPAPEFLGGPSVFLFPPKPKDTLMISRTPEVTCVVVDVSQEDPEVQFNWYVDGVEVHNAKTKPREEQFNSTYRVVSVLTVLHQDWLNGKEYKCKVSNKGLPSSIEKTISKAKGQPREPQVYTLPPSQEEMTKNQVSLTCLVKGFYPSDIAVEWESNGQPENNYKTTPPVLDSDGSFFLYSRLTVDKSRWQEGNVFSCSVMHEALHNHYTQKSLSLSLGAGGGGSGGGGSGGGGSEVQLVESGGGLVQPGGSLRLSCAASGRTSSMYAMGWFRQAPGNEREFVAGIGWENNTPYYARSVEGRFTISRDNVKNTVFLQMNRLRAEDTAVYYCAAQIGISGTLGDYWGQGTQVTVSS
light: ETVLTQSPGTLSLSPGERATLSCRASQSLGSSYLAWYQQKPGQAPRLLIYGASSRAPGIPDRFSGSGSGTDFTLTISRLEPEDFAVYYCQQYADSPITFGQGTRLEIKRTVAAPSVFIFPPSDEQLKSGTASVVCLLNNFYPREAKVQWKVDNALQSGNSQESVTEQDSKDSTYSLSSTLTLSKADYEKHKVYACEVTHQGLSSPVTKSFNRGEC
notes: also called antiPD-1/TGF-β-1

binding result [2]: binds
B3: 抗PD-1/TGF-β-2 (bispecific antibody, human IgG4 S228P, kappa)
heavy: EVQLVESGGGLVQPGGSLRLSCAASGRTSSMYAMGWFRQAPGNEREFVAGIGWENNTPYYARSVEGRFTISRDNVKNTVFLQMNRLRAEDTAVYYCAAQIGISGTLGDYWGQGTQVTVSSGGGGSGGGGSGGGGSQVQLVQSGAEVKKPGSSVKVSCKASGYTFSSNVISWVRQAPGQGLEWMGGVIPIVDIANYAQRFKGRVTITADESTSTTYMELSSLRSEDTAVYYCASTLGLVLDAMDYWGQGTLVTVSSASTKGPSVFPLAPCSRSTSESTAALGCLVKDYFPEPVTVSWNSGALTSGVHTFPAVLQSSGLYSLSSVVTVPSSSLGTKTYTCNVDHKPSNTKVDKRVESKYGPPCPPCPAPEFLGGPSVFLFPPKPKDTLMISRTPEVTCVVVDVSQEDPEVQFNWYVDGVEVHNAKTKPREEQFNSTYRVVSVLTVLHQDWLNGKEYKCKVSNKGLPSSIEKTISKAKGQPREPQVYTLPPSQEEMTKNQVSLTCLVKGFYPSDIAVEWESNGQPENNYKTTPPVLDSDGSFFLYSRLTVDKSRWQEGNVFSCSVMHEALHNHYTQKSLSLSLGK
light: B2 light
notes: also called antiPD-1/TGF-β-2

binding result [2]: binds
B4: 抗PD-1/TGF-β-3 (bispecific antibody, human IgG4 S228P, kappa)
heavy: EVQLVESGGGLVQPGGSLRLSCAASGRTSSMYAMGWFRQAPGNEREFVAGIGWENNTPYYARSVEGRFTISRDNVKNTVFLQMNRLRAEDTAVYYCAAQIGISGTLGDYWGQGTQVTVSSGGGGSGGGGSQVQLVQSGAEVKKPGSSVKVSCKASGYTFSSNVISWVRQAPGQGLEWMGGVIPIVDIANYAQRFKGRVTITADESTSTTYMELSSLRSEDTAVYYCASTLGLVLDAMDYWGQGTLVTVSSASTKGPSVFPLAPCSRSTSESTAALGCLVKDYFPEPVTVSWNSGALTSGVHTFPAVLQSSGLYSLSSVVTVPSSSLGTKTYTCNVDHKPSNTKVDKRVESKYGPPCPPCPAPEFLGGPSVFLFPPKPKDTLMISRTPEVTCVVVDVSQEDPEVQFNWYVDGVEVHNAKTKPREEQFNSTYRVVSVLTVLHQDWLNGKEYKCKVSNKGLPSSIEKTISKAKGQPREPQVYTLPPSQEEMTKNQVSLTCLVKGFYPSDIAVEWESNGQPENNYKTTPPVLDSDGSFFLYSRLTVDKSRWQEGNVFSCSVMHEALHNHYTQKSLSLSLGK
light: B2 light
notes: also called antiPD-1/TGF-β-3

EC50, PD-1报告基因法 [1]: 1.3 µg/mL
B5: 抗PD-1/IL-8-2 (bispecific antibody, human IgG4 S228P, kappa)
heavy: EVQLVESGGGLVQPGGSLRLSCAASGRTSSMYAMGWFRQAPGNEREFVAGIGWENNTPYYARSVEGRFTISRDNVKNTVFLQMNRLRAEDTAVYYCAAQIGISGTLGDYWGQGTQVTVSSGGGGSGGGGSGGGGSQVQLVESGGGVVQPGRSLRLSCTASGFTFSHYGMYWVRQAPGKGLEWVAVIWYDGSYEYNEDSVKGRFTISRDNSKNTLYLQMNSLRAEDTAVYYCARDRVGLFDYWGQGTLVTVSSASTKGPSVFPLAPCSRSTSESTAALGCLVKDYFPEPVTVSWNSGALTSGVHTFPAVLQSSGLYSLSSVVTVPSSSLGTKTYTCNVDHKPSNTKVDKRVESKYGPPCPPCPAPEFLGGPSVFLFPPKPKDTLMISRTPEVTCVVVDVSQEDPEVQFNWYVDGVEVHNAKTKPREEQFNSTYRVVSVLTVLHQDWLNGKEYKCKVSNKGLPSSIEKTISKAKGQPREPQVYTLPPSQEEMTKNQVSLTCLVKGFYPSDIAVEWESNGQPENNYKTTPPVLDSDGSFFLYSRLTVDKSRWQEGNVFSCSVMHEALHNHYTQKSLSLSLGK
light: EIVLTQSPGTLSLSPGERATLSCRASQSISSSYLAWYQQKPGQAPRLLIYGPSSRATGIPDRFSGSGSGTDFTLTISRLEPEDFAVYYCQQYAGSLTFGPGTKVDIKRTVAAPSVFIFPPSDEQLKSGTASVVCLLNNFYPREAKVQWKVDNALQSGNSQESVTEQDSKDSTYSLSSTLTLSKADYEKHKVYACEVTHQGLSSPVTKSFNRGEC

binding result [2]: binds
B6: 抗PD-1/IL-8-1 (bispecific antibody, human IgG4 S228P, kappa)
heavy: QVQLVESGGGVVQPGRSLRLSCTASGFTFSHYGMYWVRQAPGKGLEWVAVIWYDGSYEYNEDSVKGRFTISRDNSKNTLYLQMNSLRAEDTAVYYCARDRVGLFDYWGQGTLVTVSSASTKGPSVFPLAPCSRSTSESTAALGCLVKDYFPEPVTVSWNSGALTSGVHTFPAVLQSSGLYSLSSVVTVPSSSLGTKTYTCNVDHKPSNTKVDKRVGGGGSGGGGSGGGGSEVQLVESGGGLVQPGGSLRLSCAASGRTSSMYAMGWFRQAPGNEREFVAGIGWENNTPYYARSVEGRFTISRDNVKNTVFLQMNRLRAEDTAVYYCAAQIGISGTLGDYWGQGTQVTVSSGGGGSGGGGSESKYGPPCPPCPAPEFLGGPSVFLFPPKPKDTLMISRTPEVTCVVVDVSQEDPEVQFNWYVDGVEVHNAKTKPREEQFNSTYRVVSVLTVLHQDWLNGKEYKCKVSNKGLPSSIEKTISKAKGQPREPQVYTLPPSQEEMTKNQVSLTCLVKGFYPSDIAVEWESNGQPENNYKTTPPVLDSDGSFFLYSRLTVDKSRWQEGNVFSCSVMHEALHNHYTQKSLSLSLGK
light: B5 light
notes: also called antiPD-1/IL-8-1
